Test results taken from patent US10227653B2, “High MAST2-affinity polypeptides and uses thereof” (INSTITUT PASTEUR, priority 2011, dated 2019).
pKd: −log10 of the molar value.

Experiments:
[1] = biological target: T1, PDZ domain of the human PTPN4 protein (PTPN4-PDZ) (Homo sapiens, UniProt P29074); assay: ITC with PTPN4-PDZ; type: binding
T1 construct: the PDZ domain of the human PTPN4 protein
T1 sequence (P29074 517-589 limits assumed): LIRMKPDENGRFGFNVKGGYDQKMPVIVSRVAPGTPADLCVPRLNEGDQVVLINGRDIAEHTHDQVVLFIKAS
Procedure: The affinity of the polypeptides of the invention for the PDZ domain of the human PTPN4 protein is low, i.e., the constant of dissociation (KD) of the complex formed by the polypeptide of the invention with the PDZ domain of the human PTPN4 protein is high, in particular is more than 500 μM (for example as measured by ITC, in particular in the same conditions and with the same concentrations as for the MAST2-PDZ above).
ITC measurements were made using VP-ITC VP-ITC200 calorimeters (MicroCal). MAST2-PDZ was titrated at 298 K by injections of the polypeptides (25-45 consecutive aliquots of 5-7 μL at 6-min intervals). Raw data were normalized and corrected for heats of dilution of polypeptides. Equilibrium dissociation constants (KD) were determined performing nonlinear curve fitting of the corrected data to a model with one set of sites using the Origin7.0 software (OriginLab). All samples were prepared in a buffer containing 50 mM Tris-HCl, 150 mM NaCl, pH7.5. Data were recorded with MAST2-PDZ at an initial concentration of 30 μM and with peptide at initial concentrations ranging from 250 μM to 350 μM.

[2] = biological target: T2, PDZ domain of the human MAST2 protein (MAST2-PDZ) (Homo sapiens, UniProt Q6P0Q8); assay: Isothermal Titration Calorimetry (ITC) with MAST2-PDZ; type: binding; settings: 298 K, 50 mM Tris-HCl, 150 mM NaCl, pH7.5, read-out: Kd (μM) (dissociation constant) MAST2-PDZ
T2 sequence (Q6P0Q8 1101-1193 limits assumed): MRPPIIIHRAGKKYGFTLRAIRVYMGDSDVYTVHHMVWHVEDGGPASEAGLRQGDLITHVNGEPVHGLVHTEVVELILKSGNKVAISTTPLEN

Substance: ATT13: polypeptide ending with the MAST-2 binding domain […] (SEQ ID NO:235) (SWESHKSGGETRL; not fully specified)
- pKd [1]: 3.80
- Kd [2]: 0.57 µM
